Measurements: article PMC5052687, “The structural basis for CD36 binding by the malaria parasite” (Nature Communications, 2016)
Changes are numbered by the printed parent chain. Names may count otherwise.

B1: MCvar1 PfEMP1 CIDRα2.8 domain (residues 576-745, C626S) (domain or fragment)
chain: EDKIMSYNAFFWMWVHDMLIDSIKWRDEHGRCINKDKGKTCIKGCNKKCISFQKWVEQKKTEWGKIKDHFRKQKDIPKDWTHDDFLQTLLMKDLLLEIIQDTYGDANEIKRIEALLEQAGVGGIDFAALAGLYTKGFVAEKDTTIDKLLQHEQKEADKCLKTHTDDTCPP
notes: CIDRα2.8 domain of the MCvar1 PfEMP1, Plasmodium falciparum; the reverse cloning primer (D1:p11) ends at ...DTCPP; also called MCvar1 CIDRα2.8; MC179 CIDRα2.8; source: HEK293, secreted, purified (TALON, size-exclusion chromatography); for the crystal co-expressed with CD36 in the presence of kifunensine
B2: MCvar1 CIDRα2.8 domain (residues 576-745, C626S) D680N:N682T (domain or fragment)
chain: B1 chain with D105N, N107T
modifications: N-linked glycan at the introduced site on the majority of the protein
notes: CIDRα2.8 domain of the MCvar1 PfEMP1, Plasmodium falciparum; Introduces an N-linked glycosylation site into site 2 of the crystal; also called site 2 mutant; site 2; source: HEK293, secreted, purified (TALON, size-exclusion chromatography)
B3: MCvar1 CIDRα2.8 domain (residues 576-745, C626S) F660N:Q662T (domain or fragment)
chain: B1 chain with F85N, Q87T
modifications: N-linked glycan at the introduced site on a small fraction of the protein
notes: CIDRα2.8 domain of the MCvar1 PfEMP1, Plasmodium falciparum; Introduces an N-linked glycosylation site into site 1 of the crystal; also called site 1 mutant; site 1; source: HEK293, secreted, purified (TALON, size-exclusion chromatography)
B4: MCvar1 CIDRα2.8 domain (residues 576-745, C626S) Q648A (domain or fragment)
chain: B1 chain with Q73A
notes: CIDRα2.8 domain of the MCvar1 PfEMP1, Plasmodium falciparum; source: HEK293, secreted, purified (TALON, size-exclusion chromatography)
B5: MCvar1 CIDRα2.8 domain (residues 576-745, C626S) E672A (domain or fragment)
chain: B1 chain with E97A
notes: as for B4
B6: MCvar1 PfEMP1 CIDRα2.8 domain (residues 576-745, C626S) (domain or fragment)
chain: B1 chain
notes: PfEMP1 MCvar1, Plasmodium falciparum, CIDRα2.8 domain, residues 576-745; Synthetic codon-optimised cDNA (GeneArt) cloned into pHLsec-8H; also called MCvar1 CIDRα2.8; source: HEK293 cells, secreted, purified (TALON, size-exclusion chromatography); coexpressed with CD36 with kifunensine for the structure and SEC-MALS, expressed individually for SPR
B7: IT4var12 CIDRα6 domain (domain or fragment)
chain: PWCGLKKQADGTWKRLYENDPQCPIKPKYEPPKGEEPTEIDVLYTGKENKDIIVKLREFCKTDGNTGFKNEEWNCYYQVGNDKCVLENGEELGGEKKVKDYDNFLMFWVAHMLKDSIEWRSKLSNCLKSDKKTCIKKCNDNCKCYEKWIGKKKVEWTQIKKHFDKQTDFQGWGRYFVLETVLEGDQFFTDITKAYGDAREIVHIQEMLQKKKEQVLHEDASNMKTIIDELLDHELKEAKQCIVNHKDNNC
notes: CIDRα6 domain of the PfEMP1 IT4var12, Plasmodium falciparum; also called CIDRα6 IT4var12; IT4var12 (α6)
B8: IT4var30 CIDRα2.10 domain (domain or fragment)
chain: PWCGIEEQKVDGKWKAKNNGECAKVENKIYDPKKTTTIEILTGDNEKFGIYEKYNKFCANGKNGVTSGAPDTAPGKNGNQIVTWQCYYDKKKRSGQNNDNCVEGTWEKFTGKQTVKSYNVFFWDWVYHMLHDSLEWRERLNSCINNAKSQNCKNNKCNRECGCFAKWVVKKKDEWDKIKDHFNKQENIGQNVGFIEFNHYGVLEGVLDKDELLKNIKDTHADAKDIERIDKMLQQAGVVGGGRGGENNTIIDKFLQEEERFAKDCQQKQEEC
notes: CIDRα2.10 domain of the PfEMP1 IT4var30, Plasmodium falciparum; also called CIDRα2.10 IT4var30; IT4var30 (α2.10)
B9: IT4var33 CIDRα2.4 domain (domain or fragment)
chain: PLCGLGMQEPPWNPKKDTDCEDRGIKTFDDRNSTPINLLVKDVTGTSIVEKLGGLCGNGAKKNIQTWKCRFESSQNYYCVLQNDKKNTPQQEIESFNSLFWHWITEMLKDSIDWRKEHENCINNNNTCKKGCKSKCECFEKWVKRMKEEWKQVLEVYDKQPDFKEVFTPYFTLGYLLKEYFTKIKAPYEEVESVQEFIKEMEQIIDENSNNINATKENNSITKFLQHEEGIATECKKTHNEEKC
notes: CIDRα2.4 domain of the PfEMP1 IT4var33, Plasmodium falciparum; also called CIDRα2.4 IT4var33; IT4var33 (α2.4)
B10: IT4var24 CIDRα2.2 domain (domain or fragment)
chain: PLCGVNGPKGNWTDIEDKECTLVEKKKYDSNNTTNIDILTADKSQKNILQKYNKFCKNGANDEKSATPTANGGGQIKNWQCYYDESKESGQNNNCILGKWEDFTGNEDVTSYNVFFYNSIIEMLNDSIEWKDKLNICINNKTGKCRKVCKNPCECYKRWIEKKKTELEKIKDHFRKQKDIGDAAQREMTLNITLNNNFLNDIKDAYPVKQQLQKIEERLKDKMQEDFIFERTKTSIDKFLQEEEQFAEKCIEKHKC
notes: CIDRα2.2 domain of the PfEMP1 IT4var24, Plasmodium falciparum; also called CIDRα2.2 IT4var24; IT4var24 (α2.2)
B11: HB3var13 CIDRα3.2 domain (domain or fragment)
chain: PLCGVKKEKGTWVRKDSMNDCPRIKLYKPINDKVGTPINFLYSGDGQTEIAEKLKKFCRTENGSDGSSSARANGASGDKNGGSGSQELYQYWKCYQIGDLQKVREGEDDEDDGQYDQEVENAGGLCILQKTNGKENVNKQKTSHEIQKTFNPFFYYWVVHMLKDSIHWRTEKIKSCINNTNELKACKNNKKCNSDCDCFKRWVKQKGKEWGQIKVHFKTQDIRGKVVNGNTVVSFFLDHDELLEGVLDKGLLLESLQEAYGNAEDIKHIKKLLQETDVVGGGEHKTTIDFLLKEELNEAEECLKKQKDNEC
notes: CIDRα3.2 domain of the PfEMP1 HB3var13, Plasmodium falciparum; also called CIDRα3.2 HB3var13; HB3var13 (α3.2)
B12: IT4var14 CIDRα5 domain (domain or fragment)
chain: PWCGIEEQKDGKWKRINDHSACKEEELYTPKENAKYTKINVLTSGEGHEDIAKRLKEFCTKTQNGGGGSDDCGGNSDSSLCEPWQCYQPDQLEKVGGGEVDDKLKGAGGLCIFEKMKGEKKVKKQKTFNNFFNFWVAHVLKDSIDWRTQLTKCLSEDKLKKCEKGCKSNCECFKKWIEKKEKEWIKVKDQFNKQTDFLEWKHYLVLETILENYYFENIQKAYGDLKSIQEMKKMIKENKQNKNRTKDDEDALDVLFDHEKEEAEDCLDIHE
notes: CIDRα5 domain of the PfEMP1 IT4var14, Plasmodium falciparum; also called CIDRα5 IT4var14; IT4var14 (α5)
B13: IT4var45 CIDRα2.9 domain (domain or fragment)
chain: PWCGVNGTKGNWTPKNDDDCKPGNEYKNYENTQIPILTGDKTKSEIVERYRKFCKNNGKNGANGREGGVGGSENGAASNSDNATTGYCGTNNNDKDPSLCEKWTCYYKKKEKNDGKKAINFCVLQDDKVGKSQEKSMHYNSFFWDWVYHMLHDSLDWRKQLGRCINKKEETKCIGSCNKKCECFAKWVGHKQQEWEQIKKHFLKQDDIGQETNCDPMVTLEILLDIDELLKNIKDTHANADDIDRIQNMLQQAGFDGGVAALVGRCTEGFVAEKDTTIDKFLEKELQEAEKCLETHKEKC
notes: CIDRα2.9 domain of the PfEMP1 IT4var45, Plasmodium falciparum; also called CIDRα2.9 IT4var45; IT4var45 (α2.9)
B14: MAL6P1.252 CIDRα2.1 domain (domain or fragment)
chain: PWCGVKPGGPPWKDNDIDSCGKKEISFSDKDTTDISILSTDRAKKNILQKLENFCRDTEHINHDIWKCHYENTDNDNCILQNENTGSEKQKIMPFDAFFFLWLTQMLDDSIEWRKKLKTCINNEKPTNCIRGCKKPCECFERWVEQKEEEWISIEKHFDKQRDISEEERYITLEYILNEFFMDKIEKAYGIEKSKELKEKLKSNKGHGIIRDTEHSQDAIKILLEHELEDAKKCTETHNDEKC
notes: CIDRα2.1 domain of the PfEMP1 MAL6P1.252, Plasmodium falciparum; also called CIDRα2.1 MAL6P1.252
B15: IT4var61 CIDRα2.7 domain (domain or fragment)
chain: PWCGVKRNGGGWKAKSDGECAKEKKTYKKKNITEIPVLTPDKEKHNILQKYENFCKNSDGNNGDQIKNWQCYYEEKDESDNDGDSNICVLQNENIGKKEEKSMPYHPFFWKWVTEMLIDSMYWRKELKRCINKETKACKNGCKNNCDCYKRWVEEKKKEWGQIKTHFNTQEDMREDIGENTDPGIILAALLNIEDLFENIKDTYGDVKEIKDINQMLEKENEENEGTAGADSKKKNTIDLMINHEQKDAQKCVTNNPDKDC
notes: CIDRα2.7 domain of the PfEMP1 IT4var61, Plasmodium falciparum; also called CIDRα2.7 IT4var61; IT4var61 (α2.7)
B16: IT4var15 CIDRα3.5 domain (domain or fragment)
chain: PGCGVELIGNEWKEKNKGECKGGKRYNIPKGTKHNVIPVLSFGDEHKEIIEKIEQFCAESNSDSSKLTEQWKCYYGDKEYEVCTLENRNKSEEDPEEIQKTFHNFFYFWIRHLLNDSIEWRDKINNCIEKAKEGKCKNECKTDCGCFQRWIGKKKEEWGEIKKHFKTQDGFSIFGNNYDFVLENVLNIDELFQDITEAYGNSQKIQGIKDTLAKKKTQAADDATEQKNTIDLLFEYDSEEAEKCKKIQEEC
notes: CIDRα3.5 domain of the PfEMP1 IT4var15, Plasmodium falciparum; also called CIDRα3.5 IT4var15; IT4var15 (α3.5)

Target: T1, human CD36 ectodomain (residues 35-439), C-terminal 8xHis and biotinylated BAP tag (human, UniProt P16671 35-439, biotin on the BAP tag (in vitro, BirA ligase))
T1 construct: CD36, human, ectodomain residues 35-439; Construct for SPR; vector pHLsec-8H; also called CD36 wild-type; w.t; source: HEK293T, purified (TALON, size-exclusion chromatography), biotinylated in vitro with BirA; not shown: BAP tag, C-terminal, kept
T1 sequence (P16671 35-439): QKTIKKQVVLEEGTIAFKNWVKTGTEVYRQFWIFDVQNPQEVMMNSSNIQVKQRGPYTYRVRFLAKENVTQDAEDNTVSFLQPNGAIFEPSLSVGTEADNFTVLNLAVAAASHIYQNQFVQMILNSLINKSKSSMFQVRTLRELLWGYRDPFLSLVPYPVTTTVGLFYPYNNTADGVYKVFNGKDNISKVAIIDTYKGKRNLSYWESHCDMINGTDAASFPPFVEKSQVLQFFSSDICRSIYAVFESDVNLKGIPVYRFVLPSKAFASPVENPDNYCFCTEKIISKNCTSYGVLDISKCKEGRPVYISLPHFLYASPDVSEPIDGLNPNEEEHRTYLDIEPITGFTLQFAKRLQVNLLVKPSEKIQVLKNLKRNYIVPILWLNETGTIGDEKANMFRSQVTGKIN
Test: SPR; biotinylated CD36 (wild type or F153A) immobilised on a CAPture chip to ~700 RU; CIDRα domains as analytes, two-fold dilutions from 400 nM (Supplementary Figure 10: 400 nM only), 240 s injection, 300 s dissociation; 25 °C, 20 mM HEPES pH 7.5, 0.15 M NaCl, 0.005% Tween20; affinities from equilibrium binding, one site-binding model
Settings: both partners purified

Binder	Kd [nM]
B1	12
B2	18
B3	306
B4	362
B5	86

Target: T2, human CD36 ectodomain (residues 35-439) (human, UniProt P16671 35-439)
T2 construct: CD36, human, ectodomain residues 35-439; Cloned into pHLsec-8H (secretion vector); For crystallisation the complex was deglycosylated (endoglycosidase F1) and treated with carboxypeptidase Y in situ
T2 sequence (P16671 35-439): as above
Test: SEC-MALS; coexpressed and purified CD36:MCvar1 CIDRα2.8 complex at 1 mg/ml, Superdex S200 10/300 GL, 10 mM HEPES pH 7.5, 0.15 M NaCl
Settings: both partners purified

Binder	stoichiometry N
B6	1

Target: T1, human CD36 ectodomain (residues …)
Test: SPR; biotinylated CD36 (wild type or F153A) immobilised on a CAPture chip to ~700 RU; CIDRα domains as analytes, two-fold dilutions from 400 nM (Supplementary Figure 10: 400 nM only), 240 s injection, 300 s dissociation; 25 °C, 20 mM HEPES pH 7.5, 0.15 M NaCl, 0.005% Tween20; affinities from equilibrium binding, one site-binding model
Settings: both partners purified
Remark: another data set of the same source

Binder	Kd [nM]
B7	6.6
B8	55
B9	3.3
B10	15.8
B11	12.3
B12	180
B13	23
B14	3.6
B15	72
B16	3
